{"source": "patent US8241627B2", "about": "“Modified polypeptides stabilized in a desired conformation and methods for producing same” (The Center for Blood Research, Inc., priority 2000, dated 2012)", "key": {"ICAM-2": {"target": "T1, ICAM-2 (Homo sapiens, UniProt P13598)", "T1 sequence (P13598 25-223 limits assumed)": "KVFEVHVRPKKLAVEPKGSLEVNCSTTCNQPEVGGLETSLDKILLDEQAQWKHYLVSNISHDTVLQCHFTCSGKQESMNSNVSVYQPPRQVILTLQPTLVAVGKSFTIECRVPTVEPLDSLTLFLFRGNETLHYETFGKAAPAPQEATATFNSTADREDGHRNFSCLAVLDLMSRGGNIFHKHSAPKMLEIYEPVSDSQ", "assay": "BIAcore binding of soluble αL I-domains to ICAM-2", "settings": "1:1 interaction model", "description": "(§1) Briefly, recombinant mutant αL I-domain stabilized in the open conformation (K287C/K294C), or recombinant wild-type αL I-domain from amino acid residue G128 to Y307, were cloned into pET11b (Novagen) and expressed in E. coli induced with 1 mM IPTG for 4 hours. The recombinant proteins were purified from inclusion bodies by solubilization of inclusion bodies in 6M guanidine HCl and were refolded by dilution in the presence of 0.1 mM Cu^2+/phenanthrolin to enhance formation of disulfide bonds. Protein was concentrated by ammonium sulfate precipitation, dialyzed, and purified over a monoQ ion-exchange column. […] The recombinant proteins were then purified by gel filtration and concentrated by Centriprep. For BIAcore™ analysis, recombinant ICAM-1, ICAM-2 and ICAM-3 Fc chimeras were immobilized on the BIAcore™ sensor chip by an amine-coupling method. Recombinant αL I-domains were flowed in, and BIAcore™ assays were performed with Tris-buffered saline supplemented with 1 mM MgCl2 or 2 mM EDTA, at a flow rate of 10 μl/minute at 25° C."}, "ICAM-1": {"target": "ICAM-1 (Homo sapiens, UniProt P05362)", "sequence (P05362 28-480 limits assumed)": "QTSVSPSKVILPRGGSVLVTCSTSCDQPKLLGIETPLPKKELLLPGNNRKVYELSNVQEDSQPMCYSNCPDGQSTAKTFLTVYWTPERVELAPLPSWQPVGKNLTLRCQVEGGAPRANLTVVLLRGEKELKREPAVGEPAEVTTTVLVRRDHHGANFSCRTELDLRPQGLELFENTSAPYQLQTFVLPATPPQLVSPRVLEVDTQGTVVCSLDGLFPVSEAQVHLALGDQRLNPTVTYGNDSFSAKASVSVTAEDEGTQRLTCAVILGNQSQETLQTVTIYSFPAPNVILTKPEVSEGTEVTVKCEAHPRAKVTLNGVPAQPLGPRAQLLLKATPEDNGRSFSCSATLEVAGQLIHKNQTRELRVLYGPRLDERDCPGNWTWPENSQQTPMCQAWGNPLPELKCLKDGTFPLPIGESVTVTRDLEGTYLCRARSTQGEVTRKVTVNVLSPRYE", "assay": "BIAcore binding of soluble αL I-domains to ICAM-1", "description": "as §1"}, "[1]": {"tested_on": "K562 cells stably expressing wild-type LFA-1", "assay": "Inhibition by soluble I-domains of adhesion of LFA-1 expressing K562 cells to immobilized ICAM-1", "format": "cell-based, human", "settings": "LFA-1 activated by CBRLFA-1/2; 40 minutes at 37° C.", "description": "The activity of the soluble open I-domain to inhibit LFA-1I-dependent adhesion was tested. In one study, K562 cells stably expressing wild-type LFA-1 were fluorescently labeled by BCECF and LFA-1 on the cell surface was activated by the activating monoclonal antibody, CBRLFA-1/2 in L15 media supplemented with FCS. The cells were subsequently incubated in ICAM-1 coated 96-well plastic plates in the presence or absence of 1-domains. After incubation for 40 minutes at 37° C., unbound cells were washed off on a Microplate Autowasher. The fluorescence content of total input cells and the bound cells in each well was quantitated on a Fluorescent Concentration Analyzer. The bound cells were expressed as a percentage of total input cells per sample well."}, "[2]": {"tested_on": "T-lymphocytes in peripheral lymph node high endothelial venules", "assay": "Intravital microscopy of lymphocyte behaviour in peripheral lymph node high endothelial venules", "format": "in vivo", "settings": "mouse", "description": "Moreover, the ability of the open I-domain mutants to inhibit LFA-1 function in vivo was tested by visualizing microcirculation in the peripheral lymph node (LN) with intravital microscopy. Briefly, a small bolus (20-50 µl) of LN cell suspensions from […] mice were retrogradely injected through a femoral artery catheter and visualized in the subiliac LN by fluorescent epi-illumination from a video-triggered xenon arc stroboscope. After recording control […] cell behavior in the absence of 1-domain, the mouse was pretreated by intra-arterial injection of 1-domain (10 µg/g of weight) 5 minutes before T^GFP cell injection. All scenes were recorded on videotape and off-line analysis was done. The rolling fraction was calculated as percentage of rolling cells amount the total number of TGFβ cells that entered a venule. The sticking (firm adhesion) fraction was determined as the percentage of T^GFP cells becoming firmly adherent for >20 seconds in the number of T^GFP cells that rolled in a venule. Results were semi-quantitatively scored as follows: −: 0%, .+−.: 0-5%, +: 5-20%, ++: 20-40%, +++: 40-60%, ++++: 60-80%, +++++:80-100%."}, "murine ICAM-1": {"target": "murine ICAM-1 (Mus musculus, UniProt P13597)", "sequence (P13597 28-537)": "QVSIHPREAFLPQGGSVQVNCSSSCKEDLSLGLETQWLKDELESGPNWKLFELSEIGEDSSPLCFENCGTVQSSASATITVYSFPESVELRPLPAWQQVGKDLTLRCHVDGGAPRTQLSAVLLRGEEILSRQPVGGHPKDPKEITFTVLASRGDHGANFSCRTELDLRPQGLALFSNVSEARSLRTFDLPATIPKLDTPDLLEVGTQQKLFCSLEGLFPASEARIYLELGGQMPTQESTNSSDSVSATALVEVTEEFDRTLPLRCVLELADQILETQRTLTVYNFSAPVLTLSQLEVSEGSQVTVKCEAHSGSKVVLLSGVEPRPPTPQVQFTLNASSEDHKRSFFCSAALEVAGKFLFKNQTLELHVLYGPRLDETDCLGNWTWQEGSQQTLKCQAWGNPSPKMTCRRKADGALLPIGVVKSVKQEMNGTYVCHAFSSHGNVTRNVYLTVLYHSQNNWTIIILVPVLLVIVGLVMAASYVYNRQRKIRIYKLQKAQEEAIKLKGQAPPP", "assay": "Affinity of open I-domain for murine ICAM-1", "format": "binding", "description": "as §1\nTo analyze binding kinetics, different concentrations of open I-domain were tested for ligand binding (FIG. 9, Panels B, D and F)."}, "[3]": {"settings": "BIAcore, 1:1 interaction model, 1 mM MgCl2, 25° C."}}, "data": [{"molecule": "K287C/K294C: human αL (LFA-1) I-domain with K287 and K294 replaced by cysteines; high affinity locked open; tested in intact LFA-1, cell-surface and soluble forms (protein, human αL (LFA-1) I-domain with K287 and K294 replaced by cysteines; tested in intact LFA-1, cell-surface and soluble forms) GNVDLVFLFDGSMSLQPDEFQKILDFMKDVMKKLSNTSYQFAAVQFSTSYKTEFDFSDYVKRKDPDALLKHVKHMLLLTNTFGAINYVATEVFREELGARPDATKVLIIITDGEATDSGNIDAAKDIIRYIIGIGKHFQTKESQETLHKFASKPASEFVCILDTFECLKDLFTELQKKIY", "values": [{"measurement": "Koff, open I-domain binding to ICAM-2", "setting": "ICAM-2", "value": 0.0118, "unit": "s⁻¹"}, {"measurement": "Kon, open I-domain binding to ICAM-2", "setting": "ICAM-2", "value": 23000, "unit": "M⁻¹ s⁻¹"}, {"measurement": "interaction of I-domain with ligands in the presence of EDTA", "setting": "ICAM-1; 2 mM EDTA, ligands ICAM-1, -2, -3", "value": "abolished"}, {"measurement": "Koff, open I-domain binding to ICAM-1", "setting": "ICAM-1; [3]", "value": 0.0230, "unit": "s⁻¹"}, {"measurement": "Kon, open I-domain binding to ICAM-1", "setting": "ICAM-1; [3]", "value": 128000, "unit": "M⁻¹ s⁻¹"}, {"measurement": "Kon, interaction of αL I-domains with ICAM-1", "setting": "ICAM-1; calculated by Koff/KD", "value": 128000, "unit": "M⁻¹ s⁻¹"}, {"measurement": "Koff, interaction of αL I-domains with ICAM-1", "setting": "ICAM-1; curve fitting of dissociation phase, 1:1 binding model", "value": 0.0230, "unit": "s⁻¹"}, {"measurement": "inhibition of adhesion of LFA-1 expressing cells to immobilized ICAM-1", "setting": "[1]", "value": "strongly inhibited"}, {"measurement": "firm adhesion of T-lymphocytes to high endothelial venules", "setting": "[2]; injection of I-domain", "value": "effectively blocked"}, {"measurement": "lymphocyte rolling mediated by L-selectin and PNAd", "setting": "[2]; injection of I-domain", "value": "not compromised"}, {"measurement": "Fraction transmigration", "setting": "[2]; intra-arterial I-domain 10 μg/g", "value": "− (−: 0%)"}, {"measurement": "Fraction Rolling", "setting": "[2]; intra-arterial I-domain 10 μg/g 5 minutes before T-GFP cell injection", "value": "++++ (++++: 60-80%)"}, {"measurement": "Fraction firm adhesion", "setting": "[2]; intra-arterial I-domain 10 μg/g, adherent >20 seconds", "value": "± (.+−.: 0-5%)"}, {"measurement": "affinity for murine ICAM-1", "setting": "murine ICAM-1", "value": "nanomolar range"}]}]}
